Assay [1] deals with T1, cynomolgus monkey IL-33 expressed with a C-terminal hexahistidine tag (cynomolgus monkey).
T1 construct: also called MfIL-33-6His; Mf-IL-33-6His
T1 chain: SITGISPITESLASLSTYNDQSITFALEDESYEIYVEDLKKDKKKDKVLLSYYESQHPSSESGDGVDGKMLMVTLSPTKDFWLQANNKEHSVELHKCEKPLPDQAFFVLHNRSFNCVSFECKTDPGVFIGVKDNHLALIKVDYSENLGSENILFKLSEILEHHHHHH
Put plainly: SPR 25C pH7.4, mAb captured. Put shortly:
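Anti-IL-33 mAbs were captured on amine-coupled anti-mouse or anti-human Fc surfaces, and IL-33 association was followed for 4 min and dissociation for 10 min in ADA pH 7.4, 0.15M NaCl, 3 mM EDTA, 0.05% Tween-20. Sensorgrams were fit to a 1:1 model; KD and t½ came from the rate constants.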

Assay [2] deals with T2, human IL-33 (R&D Systems, #3625-IL-010/CF) (human, UniProt O95760 112-270).
T2 construct: Commercial recombinant protein; also called hIL-33; interleukin-33
T2 sequence (looked up): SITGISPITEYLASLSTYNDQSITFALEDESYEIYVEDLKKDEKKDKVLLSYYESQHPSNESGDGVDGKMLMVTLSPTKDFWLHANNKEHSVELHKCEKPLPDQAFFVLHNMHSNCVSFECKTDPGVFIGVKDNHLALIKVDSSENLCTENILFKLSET
The experiment in a line: SPR 37C, pH6.0 chase, mAb captured. The procedure:
(§1) Equilibrium dissociation constants (KD values) for IL-33 binding to purified anti-IL-33 monoclonal antibodies were determined using a real-time surface plasmon resonance biosensor using a Biacore 4000 instrument. The Biacore sensor surface was first derivatized by amine coupling with either a polyclonal rabbit anti-mouse antibody (GE, # BR-1008-38) or with a monoclonal mouse anti-human Fc antibody (GE, # BR-1008-39) to capture anti-IL-33 monoclonal antibodies expressed with mouse or with human IgG4 constant regions, respectively. All Biacore binding studies were performed in 0.01M ADA pH 7.4, 0.15M NaCl, 3 mM EDTA, and 0.05% v/v Surfactant Tween-20 (ABS-ET running buffer). […] Association of either hIL-33 or MfIL-33-6His to the captured monoclonal antibody was monitored for 4 minutes and their dissociation in ABS-ET running buffer was monitored for 10 minutes. The effect of reduced pH on the binding of each anti-IL-33 antibody to either hIL-33 or MfIL-33-6His was studied using an in-line pH chase assay format in 0.01M ADA pH 6.0, 0.15M NaCl, 3 mM EDTA, and 0.05% v/v Surfactant Tween-20 (ABS-ET pH6 buffer). To achieve this, association of either hIL-33 or MfIL-33-6His to the captured monoclonal antibody was monitored for 4 minutes in ABS-ET running buffer. Following a 30 second dissociation of either hIL-33 or MfIL-33-6His in ABS-ET running buffer, ABS-ET pH6 buffer was injected for 3 minutes, and the analyte dissociation under the low-pH conditions was measured. All the binding kinetic experiments were performed at both 25° C. and 37° C. Kinetic association (kₐ) and dissociation (kd) constants were determined by fitting the real-time sensorgrams to a 1:1 binding model using Scrubber 2.0c curve fitting software. Binding dissociation equilibrium constants (KD) and dissociative half-lives (t½) were calculated from the kinetic rate constants as: […]

For assay [3], the target named is T1, cynomolgus monkey IL-33 expressed with …. The experiment in a line: SPR 37C, pH6.0 chase, mAb captured. As for the experimental part: as §1
For assay [4], the target named is T2, human IL-33 (R&D Systems, …). Put plainly: BLI; hIL-33 pre-mixed with mAb-2 H1M9565N. The procedure: Binding competition between a panel of different anti-IL-33 monoclonal antibodies was determined using a real time, label-free bio-layer interferometry assay on an Octet® HTX biosensor (ForteBio, A Division of Pall Life Sciences). The experiment was performed at 25° C. using a buffer of 0.01M HEPES pH7.4, 0.15M NaCl, 0.05% v/v Surfactant Tween-20, and 0.1 mg/ml BSA (HBS-ET kinetics buffer) with the plate shaking at a speed of 1000 rpm. To assess whether two antibodies were able to compete with one another for binding to human IL-33, a pre-mix assay format was used where 100 nM of human IL-33 (R&D Systems; #3625-IL-010/CF) was pre-mixed with 500 nM of different anti-IL-33 monoclonal antibodies (subsequently referred to as mAb-2) for at least 2 hours prior to running the binding competition assay. […] Following the capture step, unoccupied anti-mouse Fc polyclonal antibody and anti-human Fc polyclonal antibody on the Octet biosensors were saturated by submerging them for 4 minutes into wells containing 200 μg/mL of a non-specific monoclonal antibody with a mouse Fc or with a human Fc, respectively. Finally, the Octet biosensors were immersed for 4 minutes into wells containing the pre-mixed samples of 100 nM of human IL-33 and 500 nM of mAb-2. At the end of each cycle, the non-covalently captured anti-IL-33 antibodies along with the bound pre-complex of human IL-33 and mAb-2 were removed from the biosensors using three alternate 20 second immersions into 10 mM HCl followed by submerging into HBS-ET kinetics buffer. The biosensors were washed in HBS-ET kinetics buffer in between every step of the experiment. The real-time binding response was monitored during the binding events, and the binding response (in units of nm) at the end of every step was recorded.
In general terms: Biolayer interferometry detects binding as a change in optical thickness at a sensor tip.

Assay [5] has as its target T1, cynomolgus monkey IL-33 expressed with …. Put plainly: BLI; captured MfIL-33-6His, mAb-1 step with Isotype control. As for the experimental part:
Binding competition between a panel of different anti-IL-33 monoclonal antibodies was determined using a real time, label-free bio-layer interferometry assay on an Octet® HTX biosensor (ForteBio, A Division of Pall Life Sciences). The experiment was performed at 25° C. using a buffer of 0.01M HEPES pH7.4, 0.15M NaCl, 3 mM EDTA, 0.05% v/v Surfactant Tween-20, and 0.1 mg/ml BSA (HBS-ET kinetics buffer) with the plate shaking at a speed of 1000 rpm. […] The antigen-captured biosensors were then saturated with a first anti-IL-33 monoclonal antibody (subsequently referred to as mAb-1) by immersion into wells containing 50 μg/mL solution of mAb-1 for 5 minutes. The biosensors were then dipped into wells containing a 50 μg/mL solution of a second anti-IL-33 monoclonal antibody (subsequently referred to as mAb-2) for 4 minutes. The biosensors were washed in HBS-ET kinetics buffer in between every step of the experiment. The real-time binding response was monitored during the experiment, and the maximum binding response for each binding step was recorded. The response of mAb-2 binding to MfIL-33-6His pre-complexed with mAb-1 was measured, and competitive/non-competitive behavior of different anti-IL-33 monoclonal antibodies with respect to each other was determined.

B1: H4H9660P (antibody, human IgG4, V domains shown)
VH: EVQLVESGGGLVQPGGSLRLSCAASGITLSSYGMSWVRQAPGKGLEWVASIFGSGGGPYYADSVKGRFTMSRDNSKNTLYLQMNSLRAEDTAVYYCAKDRYSGSYYGGFDYWGRGTLVTVSS
VL: DIQMTQSPSSVSASVGDRVTITCRASQGITSWLAWYQQKPGKAPTLLIYAASSLQTGVPSRFSGSGSGTDFTLTISSLQPEHFATYYCQQANSFPPTFGGGTKVEIK
notes: Human IgG4 Fc (H4H)
With B1, in assay [1], the affinity, expressed as Kd, was 3.49 nM; the koff was 0.00149 s⁻¹; the kon worked out at 426000 M⁻¹ s⁻¹; the t½ came out at 8 min. Moreover, in assay [2], the koff is 0.00323 s⁻¹, the t½ was found to be 4 min and the “t½ Ratio (pH 7.4/pH 6.0)” value was 6.8. Further, in assay [3], the koff was determined as 0.00463 s⁻¹, the t½ turned out to be 2.5 min and the “t½ Ratio (pH 7.4/pH 6.0)” value was 1. Further, in assay [4], the “mAb-1 Binding to the Pre-complex of mAb-2 & hIL-33” value (“mAb-1 Binding to the Pre-complex” below) is 0.53 nm. Besides, the “mAb-2 Binding to the Pre-complex of mAb-1 & MfIL-33-6xHis” value (from here on “mAb-2 Binding to the Pre-complex”) in assay [5] was 0.26 nm.

B2: H4H9662P (antibody, V domains shown)
VH: EVQLVESGGGLVQPGGSLRLSCAASGFTFSSYALTWVRQAPGKGLEWVSFISGSGGRPFYADSVKGRFTISRDNSKNMLYLQMNSLRAEDTAIYYCAKSLYTTSWYGGFDSWGQGTLVTVSS
VL: DIQMTQSPSSVSASVGDRVTITCRASQGVVSWLAWYQQKPGKAPKLLIYAASSLQSGVPSRFSGSGSGTDFTLTISSLQPEDFATYYCQQSNSFPFTLGPGTKVDIK
notes: Human IgG4 Fc (H4H)
In assay [1], B2 came in with a Kd of 1.25 nM, a koff of 0.000442 s⁻¹, a kon of 353000 M⁻¹ s⁻¹ and a t½ of 26 min. Moreover, in assay [2], the koff is 0.00383 s⁻¹, the t½ is 3 min and the “t½ Ratio (pH 7.4/pH 6.0)” value stood at 6.2. Besides, in assay [3], the koff came out at 0.00168 s⁻¹, the t½ was 7 min and the “t½ Ratio (pH 7.4/pH 6.0)” value came out at 1.1. Further, the “mAb-1 Binding to the Pre-complex” value in assay [4] is 0.57 nm. Further, the “mAb-2 Binding to the Pre-complex” value in assay [5] stood at 0.22 nm.

B3: H4H9664P (antibody, human IgG4, V domains shown)
VH: QVQLVESGGGVVQPGRSLRLSCAASGFTFSSYGLHWVRQSPGKGLEWVALISYDGSNKYYADSVKGRFTISRDNSKNTLYLQMNSLRPEDTAGYFCAKSLYTTSWYGGFDYWGQGTLVTVSS
VL: DIQMTQSPSSVSASVGDRVTITCRASQGIRSWLAWYQQKPGKAPNLLIYAASSLQSGVPSRFSGSGSGTDFTLTISSLQPEDFATYYCQQANSFPPTFGPGTKVDIK
notes: Human IgG4 Fc (H4H)
With B3, in assay [1], the Kd was found to be 11.8 nM, the koff was 0.00165 s⁻¹, the kon came to 140000 M⁻¹ s⁻¹ and the t½ stood at 7 min. Besides, in assay [2], the koff is 0.00279 s⁻¹, the t½ worked out at 4 min and the “t½ Ratio (pH 7.4/pH 6.0)” value is 3.9. For the same molecule, in assay [3], the koff worked out at 0.00193 s⁻¹, the t½ came out at 6 min and the “t½ Ratio (pH 7.4/pH 6.0)” value stood at 0.3. In addition, the “mAb-1 Binding to the Pre-complex” value in assay [4] turned out to be 0.48 nm. Further, the “mAb-2 Binding to the Pre-complex” value in assay [5] is 0.27 nm.

B4: H4H9663P (antibody, human IgG4, V domains shown)
VH: QVQLVQSGAEVKKPGASVKVSCKASGYTFTGHYMYWMRQAPGQGLEWMGWINPNSGGTNYAQKFQDRVTMTRDTSISTAYMELSRLRSDDTAVYYCARGRYGSSWYGGFEYWGQGTLVTVSS
VL: DIQMTQSPSSVSASVGDRVTITCRASQGITSWLAWYQQKPGKAPNLLIYAAASLQSGVPSRFSGSGSGTDFTLTISSLQPEDFTTYYCQQAYSLPLTFGGGTKVEIK
notes: Human IgG4 Fc (H4H)
With B4, in assay [1], the affinity, expressed as Kd, was 1.06 nM; the koff stood at 0.000925 s⁻¹; the kon was 869000 M⁻¹ s⁻¹; the t½ is 12 min. For the same molecule, in assay [2], the koff was found to be 0.00462 s⁻¹, the t½ was determined as 3 min and the “t½ Ratio (pH 7.4/pH 6.0)” value worked out at 3.7. In assay [3], the koff stood at 0.00354 s⁻¹, the t½ was 3.3 min and the “t½ Ratio (pH 7.4/pH 6.0)” value came out at 1. Also, the “mAb-1 Binding to the Pre-complex” value in assay [4] came to 0.54 nm. Moreover, the “mAb-2 Binding to the Pre-complex” value in assay [5] came out at 0.23 nm.

B5: H4H9665P (antibody, human IgG4, V domains shown)
VH: EVQLVESGGGLVQPGGSLRLSCAASGFTFSNYAMTWVRQAPGKGLEWVSTISGSGDNTYYADSVQGRFTISRGHSKNTLYLQMNSLRAEDTAVYYCAKPTYSRSWYGAFDFWGQGTMVTVSS
VL: DIQMTQSPSSVSASVGDRVTITCRASQGISSWLAWYQQKPGKAPQLLIYAASRLQSGVPSRFWGSGSGTDFTLTISSLQPEDFATYYCQQANNFPFTFGPGTKVDIK
notes: Human IgG4 Fc (H4H)
In assay [1], B5 gave a Kd of 1.02 nM, a koff of 0.000566 s⁻¹, a kon of 557000 M⁻¹ s⁻¹ and a t½ of 20 min. Besides, in assay [2], the koff amounted to 0.00965 s⁻¹, the t½ turned out to be 1 min and the “t½ Ratio (pH 7.4/pH 6.0)” value came out at 6.7. In assay [3], the koff came out at 0.004 s⁻¹, the t½ turned out to be 2.9 min and the “t½ Ratio (pH 7.4/pH 6.0)” value amounted to 1.9. Besides, in assay [4], the “mAb-1 Binding to the Pre-complex” value was 0.66 nm. Further, in assay [5], the “mAb-2 Binding to the Pre-complex” value was 0.3 nm.

The Kd is a measure of binding affinity in units of concentration. Broadly, the koff is a measure of how fast the partners let go of each other. Usually kon stands for the rate constant with which the complex forms. Usually t½ stands for how long it takes for the measured level to halve.

Values taken from patent publication US20160362487A1 (Regeneron, published 2016).
